From IntAct's records for PubMed 18001824

Molecular target: rnf8_human RNF8 (UniProt O76064)
Chain of UniProt O76064 (O76064 whole entry): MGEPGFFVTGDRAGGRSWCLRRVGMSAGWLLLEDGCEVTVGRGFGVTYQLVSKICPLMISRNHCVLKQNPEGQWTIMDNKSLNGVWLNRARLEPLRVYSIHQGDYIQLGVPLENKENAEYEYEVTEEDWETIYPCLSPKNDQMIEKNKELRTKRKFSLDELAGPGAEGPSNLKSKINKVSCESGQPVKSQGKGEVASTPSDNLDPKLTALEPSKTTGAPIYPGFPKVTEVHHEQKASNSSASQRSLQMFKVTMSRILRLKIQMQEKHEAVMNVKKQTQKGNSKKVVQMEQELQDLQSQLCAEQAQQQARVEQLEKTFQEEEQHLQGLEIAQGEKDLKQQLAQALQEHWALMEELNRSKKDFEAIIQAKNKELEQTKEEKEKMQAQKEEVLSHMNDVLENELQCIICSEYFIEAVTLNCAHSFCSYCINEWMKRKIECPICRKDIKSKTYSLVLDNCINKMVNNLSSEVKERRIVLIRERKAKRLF

Substance: Mediator of DNA damage checkpoint protein 1 (Homo sapiens), Q14676 T699A;T719A;T752A
- effect of a mutation on the interaction: decreasing interaction
